Substrate in data set [1]: NC(=O)C[C@H](N)C(=O)O
The data set is described as follows: Nessler ammonia assay. The format is biochemical, Escherichia coli. The conditions noted are these: PBS pH 7.4, 37 °C. The text has this:
Nessler ammonia assay on EcAIII

Substrate in data set [2]: COC(=O)[C@H](Cc1ccccc1)NC(=O)C[C@H](N)C(=O)O
Nature of the data set: purified protein. The format is biochemical, Escherichia coli. The conditions noted are these: PBS pH 7.4, 37 °C, 600 µM α-ketoglutarate, 190 µM NADH.

Substrate in data set [3]: NC(=O)C[C@H](N)C(=O)O
The data set is described as follows: purified protein. The conditions noted are these: PBS pH 7.4, 37 °C.

Substrate in data set [4]: NC(=O)C[C@H](N)C(=O)O
Nature of the data set: ITC single-injection method. The format is biochemical, Escherichia coli. Particulars: PBS pH 7.4, 37 °C. The source says: ITC single-injection method on EcAII

Substrate in data set [5]: NC(=O)C[C@H](N)C(=O)O
The data set is described as follows: Nessler ammonia assay. The format is biochemical, Rhizobium etli. The conditions noted are these: PBS pH 7.4, 37 °C. The source says:
Nessler ammonia assay on ReAV

These results are taken from article PMC11124013, “Substrate Affinity Is Not Crucial for Therapeutic L-Asparaginases: Antileukemic Activity of Novel Bacterial Enzymes” (Molecules, 2024).

B1: EcAIII (Escherichia coli K-12) (protein)
chain 1: GKAVIAIHGGAGAISRAQMSLQQELRYIEALSAIVETGQKMLEAGESALDVVTEAVRLLEECPLFNAGIGAVFTRDETHELDACVMDGNTLKAGAVAGVSHLRNPVLAARLVMEQSPHVMMIGEGAENFAFARGMERVSPEIFSTSLRYEQLLAARKEGATVLDHSGAPLDEKQKMG
chain 2: TVGAVALDLDGNLAAATSTGGMTNKLPGRVGDSPLVGAGCYANNASVAVSCTGTGEVFIRALAAYDIAALMDYGGLSLAEACERVVMEKLPALGGSGGLIAIDHEGNVALPFNTEGMYRAWGYAGDTPTTGIYREKGDTVATQ
notes: synthetic gene, N-terminal 6xHis-tag (pET28a or pMSCG92), expressed in E. coli BL21 Gold (DE3); precursor self-matures into alpha and beta subunits, (alpha-beta)2 heterotetramer
As to B1, in the data set “Nessler ammonia assay [1]”, the Michaelis constant (Km) (commonly the substrate concentration at which the rate is half of its maximum) amounted to 17.66 ± 1.87 mM; the turnover number (kcat) – broadly, the maximal rate divided by the concentration of active sites – was found to be 5.77 ± 0.19 s⁻¹; the specificity constant (kcat/Km) (in general, the turnover number divided by the Michaelis constant) was found to be 330 ± 100 M⁻¹ s⁻¹. Also, in the data set “purified protein [2]”, the Km was determined as 3.57 ± 0.58 mM, the kcat is 0.112 ± 0.007 s⁻¹ and the kcat/Km amounted to 31 ± 7 M⁻¹ s⁻¹.

B2: ReAIV (Rhizobium etli CFN 42) (protein)
chain: MTNPVTVEVTRGLLVESRHRGAVAVVDGDGKLFFSLGDIDTAVFPRSACKAMQALPLVESGAADAYGFGDKELALACASHNGEEEHVALAASMLSRAGRNVEALECGAHWSMNQKVLIQQARSLDAPTALHNNCSGKHAGFICACCHRDIDPKGYVGYEHPLQVEIRAVMERLTGAVLGAESCGTDGCSIPTYAMPLRNLAHGFARMATGTGLEPLRAKASRRLIEACMAEPFYVAGSGRACTKLMQIAPGRIFVKTGAEGVFCAAIPEKGIGISLKSEDGATRAAEAMVAATLARFFETEETVHAALMAFAAMPMRNWNGIHVGDIRATSVFSA
Take B2: in the data set “purified protein [3]”, the Km came to 7.16 ± 2.03 mM, the turnover number (kcat) was 9.98 s⁻¹ and the kcat/Km is 1390 M⁻¹ s⁻¹.

B3: EcAII (Escherichia coli K-12) (protein)
chain: LPNITILATGGTIAGGGDSATKSNYTVGKVGVENLVNAVPQLKDIANVKGEQVVNIGSQDMNDNVWLTLAKKINTDCDKTDGFVITHGTDTMEETAYFLDLTVKCDKPVVMVGAMRPSTSMSADGPFNLYNAVVTAADKASANRGVLVVMNDTVLDGRDVTKTNTTDVATFKSVNYGPLGYIHNGKIDYQRTPARKHTSDTPFDVSKLNELPKVGIVYNYANASDLPAKALVDAGYDGIVSAGVGNGNLYKSVFDTLATAAKTGTAVVRSSRVPTGATTQDAEVDDAKYGFVASGTLNPQKARVLLQLALTQTKDPQQIQQIFNQY
notes: synthetic gene, N-terminal 6xHis-tag (pET28a or pMSCG92), expressed in E. coli BL21 (DE3) deltaansA/deltaansB; tetramer
With B3, in data set [4], the Km turned out to be 0.012 ± 0.002 mM, the kcat stood at 39 ± 1 s⁻¹ and the kcat/Km is 3.3e+06 ± 561000 M⁻¹ s⁻¹.

B4: ReAV (Rhizobium etli CFN 42) (protein)
chain: MTPSEDFVVTDRGGIVENSHRVHAAVVDAKGRLLYALGNPTRMTLARSAAKPAQALAILETEGVAGYGFDDADIALMCASHSSEDRHIARTRAMLSKIKAEEADLRCGGHPSLSEMVNRSWIKQDFIPTAVCSNCSGKHVGMLAGARAIGAGTDGYHLPDHPMQGRVKRTVAELCDLDAGDVEWGTDGCNLPTPAFPLDRLGRIYAKLASAADGSDAGEGQSTRCAALAHIFRAMARHPEMVAGEGRYCTMLMRAFDGALVGKLGADASYAIGVRASDATRQLGTDGALGISVKIEDGNLEMLYAVVTELLERLGIGSPDVRSQLASFHHPQRVNTMGVTTGGVSFPFKLRGSKSNVDDPRLAAVAR
notes: gene in pET151D-TOPO, 6xHis-tagged, expressed in E. coli BL21 Gold (DE3); homodimer, Zn in active site
Take B4: in the data set “Nessler ammonia assay [5]”, the Km was determined as 24.81 ± 3.22 mM, the kcat came to 28.5 ± 1.6 s⁻¹ and the kcat/Km stood at 1150 ± 210 M⁻¹ s⁻¹.
